In patent US20250034275A1 (CHIA TAI TIANQING PHARMACEUTICAL GROUP, published 2025):
Where two headings read alike, the source gives them in different places.

Assays:
[1] = molecular target: human Trop-2 (on the surface of human cell lines) (human) (UniProt P09758); assay: flow cytometry, NCI-H322 cells, antibody at 3 ug/mL
[2] = molecular target: Macaque Trop-2-His (macaque); assay: ELISA, plate-coated macaque Trop-2-His
human Trop-2-His [3] = molecular target: T1, human Trop-2-His (human, UniProt P09758 27-274, limits assumed); assay: SPR (Biacore 8K), antibody captured, Trop-2-His as analyte
T1 construct: by analogy with the macaque construct it is probably the extracellular domain with a His tag; also called Trop-2-His protein
T1 sequence: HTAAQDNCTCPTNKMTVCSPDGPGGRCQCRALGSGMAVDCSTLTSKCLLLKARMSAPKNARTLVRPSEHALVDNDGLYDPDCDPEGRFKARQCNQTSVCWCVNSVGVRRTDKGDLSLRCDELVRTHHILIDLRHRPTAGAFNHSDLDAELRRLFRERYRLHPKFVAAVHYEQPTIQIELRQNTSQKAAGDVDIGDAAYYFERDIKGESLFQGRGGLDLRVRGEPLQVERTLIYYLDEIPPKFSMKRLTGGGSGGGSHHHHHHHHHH
Outline: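 Antibody captured on anti-human IgG-coated CM5 chip; human Trop-2-His flowed as analyte with real-time association/dissociation recording, 3M MgCl₂ regeneration. Double-subtracted curves fit to Langmuir 1:1 model giving ka, kd and KD.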

human Trop-2-His [4] = molecular target: T1, human Trop-2-His; assay: ELISA, plate-coated human Trop-2-His
[5] = molecular target: human Trop-2 (on the surface of human cell lines) (human) (UniProt P09758); assay: flow cytometry, HCC38 cells
[6] = molecular target: human Trop-2 (on the surface of human cell lines) (human) (UniProt P09758); assay: flow cytometry, HCC1806 cells
[7] = molecular target: Macaque Trop-2-His (macaque); assay: ELISA, plate-coated macaque Trop-2-His; remark: listed apart in the source
[8] = molecular target: human Trop-2 (on the surface of human cell lines) (human) (UniProt P09758); assay: flow cytometry, OVCAR-3 cells, antibody at 3 ug/mL
[9] = molecular target: human Trop-2 (on the surface of human cell lines) (human) (UniProt P09758); assay: flow cytometry, HCC1806 cells; remark: listed apart in the source
[10] = molecular target: human Trop-2 (on the surface of human cell lines) (human) (UniProt P09758); assay: flow cytometry, PC-3 cells, antibody at 3 ug/mL
[11] = molecular target: human Trop-2 (on the surface of human cell lines) (human) (UniProt P09758); assay: cell-based or functional assay
[12] = molecular target: human Trop-2 (on the surface of human cell lines) (human) (UniProt P09758); assay: flow cytometry, HCC38 cells, antibody at 3 ug/mL
[13] = molecular target: human Trop-2 (on the surface of human cell lines) (human) (UniProt P09758); assay: flow cytometry, HUVEC cells, antibody at 3 ug/mL
[14] = molecular target: Macaque Trop-2-His (macaque); assay: ELISA, plate-coated macaque Trop-2-His; remark: listed apart in the source
[15] = molecular target: human Trop-2 (on the surface of human cell lines) (human) (UniProt P09758); assay: flow cytometry, HCC38 cells; remark: listed apart in the source
[16] = molecular target: human Trop-2 (on the surface of human cell lines) (human) (UniProt P09758); assay: flow cytometry, Capan-1 cells, antibody at 3 ug/mL
[17] = molecular target: human Trop-2 (on the surface of human cell lines) (human) (UniProt P09758); assay: flow cytometry, HCC1806 cells, antibody at 3 ug/mL
[18] = molecular target: human Trop-2 (on the surface of human cell lines) (human) (UniProt P09758); assay: flow cytometry, HCC38 cells; remark: listed apart in the source
[19] = molecular target: human Trop-2 (on the surface of human cell lines) (human) (UniProt P09758); assay: flow cytometry, HCC1806 cells; remark: listed apart in the source
[20] = molecular target: human Trop-2 (on the surface of human cell lines) (human) (UniProt P09758); assay: flow cytometry, OVCAR-3 cells
[21] = molecular target: human Trop-2 (on the surface of human cell lines) (human) (UniProt P09758); assay: flow cytometry, OVCAR-3 cells; remark: listed apart in the source

B1: TINA (antibody, INN chains, looked up, V domains shown)
VH: QVQLVQSGAEVKKPGASVKVSCKASGYTFTTAGMQWVRQAPGQGLEWMGWINTHSGVPKYAEDFKGRVTISADTSTSTAYLQLSSLKSEDTAVYYCARSGFGSSYWYFDVWGQGTLVTVSS
VL: DIQMTQSPSSLSASVGDRVTITCKASQDVSTAVAWYQQKPGKAPKLLIYSASYRYTGVPSRFSGSGSGTDFTLTISSLQPEDFAVYYCQQHYITPLTFGQGTKLEIK
[1]
  MFI: 2.83e+06
  Positive rate (%): 100%
  Ratio (MFI of TINA to MFI of the IgG1 control): 133
[2]
  EC50: 0.106 nM
Human Trop-2-His [3]
  Kd: 12.5 nM
  koff: 0.00239 s⁻¹
  kon: 191000 M⁻¹ s⁻¹
Human Trop-2-His [4]
  EC50: 0.083 nM
Human Trop-2-His [4]; record 2
  EC50: 0.166 nM
[5]
  EC50: 1.04 nM
[6]
  EC50: 0.73 nM
[7]
  EC50: 0.063 nM
[8]
  MFI: 182000
  Positive rate (%): 99%
  Ratio (MFI of TINA to MFI of the IgG1 control): 15.4
[9]
  EC50: 1.44 nM
[10]
  MFI: 68500
  Positive rate (%): 69.1%
  Ratio (MFI of TINA to MFI of the IgG1 control): 7.7
[11]
  ADCC reporter (Jurkat-CD16a v158-NFAT-luciferase), target cell H322, EC50: 0.27 nM
  ADCC reporter (Jurkat-CD16a v158-NFAT-luciferase), target cell HCC1806, EC50: 0.46 nM
  ADCC, PBMC killing (LDH), H322, EC50: 0.02 nM
  ADCC, PBMC killing (LDH), H322, Maximum killing (%): 49.8%
  ADCC, PBMC killing (LDH), HCC1806, EC50: 0.07 nM
  ADCC, PBMC killing (LDH), HCC1806, Maximum killing (%): 38.5%
[12]
  MFI: 3.85e+06
  Positive rate (%): 99.3%
  Ratio (MFI of TINA to MFI of the IgG1 control): 119
[13]
  MFI: 125000
  Positive rate (%): 22.9%
  Ratio (MFI of TINA to MFI of the IgG1 control): 6.1
[14]
  EC50: 0.046 nM
[15]
  EC50: 1.21 nM
[16]
  MFI: 1.21e+06
  Positive rate (%): 98.4%
  Ratio (MFI of TINA to MFI of the IgG1 control): 18.4
[17]
  MFI: 1.66e+06
  Positive rate (%): 99.9%
  Ratio (MFI of TINA to MFI of the IgG1 control): 102
[18]
  EC50: 0.79 nM
[19]
  EC50: 0.84 nM
[20]
  EC50: 1.28 nM
[21]
  EC50: 1.29 nM
